Laboratory results published in the nanobody polyreactivity screen of Harvey et al. (2022).

Assay: yeast display, Sf9 membrane polyspecificity reagent, FACS + sequencing; frameworks hold sequencing errors
Method in brief: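 Galactose-induced (36–48 hours) yeast carrying a synthetic nanobody display library were exposed to 10% biotinylated, detergent-solubilized Sf9 membrane reagent at 4 °C for 1 hour. FACS followed streptavidin microbead enrichment, using low and high (top ~1%) gates for expression (anti-HA) and reagent binding (streptavidin). Colony PCR, MiSeq 2 × 250 sequencing and CDR-length filtering followed. Labels for polyreactivity reflect the gate of origin.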

Sequence | polyreactivity (PSR sort gate)
QVQLVESGGGLVQAGGSLRLSCAASGRIFSSYAMGWSRPAPGKERELVAAISSSGGNTYYADSVKGRFTISRDNAKNTVYLQMNSLKPEDTAVYYCNTRWVHRDWYDYWGQGTQVTVSS | high polyreactivity
QVQLVESGGGLVQAGGSLRLSCAASGSIFRFYAMGWYRQAPGKERELVAAITSGGSTNYADSVKGRFTISRDNAKNTVYLQMNSLKPEDTAVYYCAAELVYFFIYDYWGKGTQVTVSS | low polyreactivity
QVQLVESGGGLVQAGGSLRLSCAASGFTFERNAMGWYRQAPGKERELVATINGSSDSTYYSDSVKGRFTISRDNAKNTVYLQMNSLKPEDTAVYYCNADSITEGNSRYSHFDYWGQGTQVTVSS | low polyreactivity
QVQLVESGGGVVQAGGSLRLSCAASGSTFFYYAMGWYRQAPGKERELVATIRGSAGRTYYADSVKGRFTISRDHAKYTVYLQMNCLKPEDTAVYYCARRYWPGSAYWIYDYWGQGTQVTVSS | high polyreactivity
QVQLVESGGGLVQAGGSLRLSCAASGSTFAYNTMGWYRQAPGKERELVAAISQRGGSTYADSVKGRFTISRDNAKNTVYLQMNSLKPEETAVYYCAAVGYTYKFDYWGQGTQVTVSS | low polyreactivity
QVQLVESGGGLVQAGGSLRLSCAASGSTFPAYAMGWYRQAPGKERELVATITYTGGSTYYADSVKGRFTISRDNAKNTVYLQMNSLKPEDTAVYYCAADRWDQEDEFDYWGQGTQVTVSS | low polyreactivity
QVQLVESGGGLVQAGGSLRLSCAASGFTRIYAMGWYRQAPGKERELVAAISQRGGRTYYADSVKGRFTISRDNAKNTVYLQMNSLKPEDTAVYYCAVRGPYQGRTRYYYWGQGTQVTVSS | high polyreactivity
QVQLVESGGGLVQAGGSLRLSCAASGFIFYSYAMGWYRQAPGKERELVAAIDWDDGTTYYADSVKGRFTISRDNAKNTVYLQMNSLKPEDTAVYYCAAESYYGAYDYWGQGTQVTVSS | high polyreactivity
QVQLVESGGGLVQAGGSLRLSCAASGRIFSVYDMGWYRQAPGKERELVAAIDTSDGSTNYADSVKGRFTISRDNAKNTVYLQMNSLKPEDTAVYYCNATDSYVPFDYWGQGTQVTVSS | low polyreactivity
QVQLVESGGGLVQAGGSLRLSCAASGSTFGRYAMGWYRQAPGKERELVAAINFNGGRTYYADSVKGRFTISRDNAKNTVYLQMNSLKPEDTAVYYCNALQQYALSRYYWGQGTQVTVSS | high polyreactivity
QVQLVESGGGLVQAGGSLRLSCAPSGNIFGYYVMAWYRQAPGTERELVAAITWSAGTTNYADSVKGRFTISRDNAKNTVYLQMNSLKPEDTAVYYFAVTWWYQDYDLTWYLYDYWGQGTEVTVSS | low polyreactivity
QVQLVESGGGLVQAGGSLRLSCAASGRIFAQNAMGWYRQAPRNERELVAGISYGGGRTYYADSVKGRFTISRDKAKNTVYLQMNSLKPEDTAVYYCAKAVNSPRKYQLGNGYWGQGTQVTVSS | high polyreactivity
QVQLVESGGGLVQAGGSLRLSCAASGSSRIYDMGWYRQAPGKERVWVAAISSTGSTYYADSEKGRYTISRDNAKNTGYLQMNSLKPEETADYYCAAARYYRYDSYSSWGQGTQVTVSS | high polyreactivity
QVQLVESGGGLVQAGGSLRLSCAASGSTFYVNDMGWYRQAPGKERELVATISSGSSTYYADSVKGRFTISRDNAKNTVYFQMNSLKPEDTAVYYCAADGVAEEGFDAPYDYWGQGTQVTVSS | low polyreactivity
QVQLVESGGGLVQAGGSLRISCAASGSIFRGNAMGWYRQAPGKERELVAAISKSGGSTYYADSVKGRITISRDNAKNTVYLQMNSLKPEDTAVYYCAARTTYLYGMYYWGQGTQVTVSS | low polyreactivity
QVQLVESGGGLVQAGGSLRLGCAASGFTLWYYNIGWYRQAPGKERELVASISWSGGSTYYADSVKGRFTISRDNAKNTVYLQMNSLKPEDTALYYCNVQSYDRIYDYWGQGTQVTVSS | high polyreactivity
QVQLLESGGGLVQAGGSLRLSCASSGFTFGWYAMGWYRPAPGKERDLVAAISYSGGSTYYADSVKGRFTISRDNAKNTVYLQMNSLKPEDTAVYYCAAKARRPYSYHPYDYWGQGTQVTVSS | high polyreactivity
